Data published in patent US20220389118A1 (Chugai, published 2022).
Residue numbers refer to the chain shown, from its start. Numbers in names are those of the source.

T1: human FcγRIIa type H extracellular domain with C-terminal His tag (human, UniProt P12318 34-217)
T1 construct: extracellular domain; also called FcγRIIaH; FcgRIIaH
T1 sequence (looked up): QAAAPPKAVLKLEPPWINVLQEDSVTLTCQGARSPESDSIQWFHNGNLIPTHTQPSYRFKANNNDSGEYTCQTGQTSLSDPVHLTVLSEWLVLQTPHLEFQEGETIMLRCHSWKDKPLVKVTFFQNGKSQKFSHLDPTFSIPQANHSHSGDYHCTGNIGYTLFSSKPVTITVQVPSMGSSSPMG

T2: human FcγRIIa type R (allotype R131) extracellular domain with C-terminal His tag (human, UniProt P12318 34-217)
T2 construct: extracellular domain; also called FcγRIIaR; FcγRIIa R type; not shown: His tag at the C terminus
T2 sequence (looked up): T1 sequence (looked up) with H134R

T3: human FcγRIIa type H (allotype H131) extracellular domain with C-terminal His tag (human, UniProt P12318 34-217)
T3 construct: extracellular domain; also called FcγRIIaH; FcγRIIa H type; not shown: His tag at the C terminus
T3 sequence (looked up): T1 sequence (looked up)

T4: human FcγRIIb extracellular domain with C-terminal His tag (human, UniProt P31994 43-217)
T4 construct: extracellular domain; not shown: His tag at the C terminus
T4 sequence (looked up): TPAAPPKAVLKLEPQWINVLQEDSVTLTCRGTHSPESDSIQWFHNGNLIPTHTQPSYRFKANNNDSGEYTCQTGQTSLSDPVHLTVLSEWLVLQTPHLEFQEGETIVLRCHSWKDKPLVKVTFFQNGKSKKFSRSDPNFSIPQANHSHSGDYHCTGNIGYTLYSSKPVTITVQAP

T5: human FcγRIIa type H (H131) extracellular domain with C-terminal His tag (human, UniProt P12318 34-217)
T5 construct: extracellular domain; also called FcγRIIaH; not shown: His tag at the C terminus
T5 sequence (looked up): T1 sequence (looked up)

T6: human FcγRIIa type R (R131) extracellular domain with C-terminal His tag (human, UniProt P12318 34-217)
T6 construct: extracellular domain; also called FcγRIIaR; not shown: His tag at the C terminus
T6 sequence (looked up): T1 sequence (looked up) with H134R

T7: human FcγRIIb extracellular domain with C-terminal His tag (human, UniProt P31994 43-217)
T7 construct: extracellular domain; not shown: His tag at the C terminus
T7 sequence (looked up): T4 sequence (looked up)

T8: human FcγRIIb extracellular domain (human, UniProt P31994 43-217)
T8 construct: also called FcγIIB; not shown: His tag at the C terminus
T8 sequence: T4 sequence (looked up)

T9: human FcγRIIa type R extracellular domain (human, UniProt P12318 34-217)
T9 construct: also called FcγRIIaR; FcγRIIa(R); not shown: His tag at the C terminus
T9 chain: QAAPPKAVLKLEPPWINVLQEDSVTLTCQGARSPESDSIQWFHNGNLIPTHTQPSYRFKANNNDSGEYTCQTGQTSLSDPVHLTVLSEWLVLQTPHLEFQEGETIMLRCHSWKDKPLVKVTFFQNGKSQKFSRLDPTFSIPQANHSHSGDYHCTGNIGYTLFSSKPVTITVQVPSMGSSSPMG

B1: IL6R-BP089/IL6R-L (antibody, human IgG1, kappa)
heavy: QVQLQESGPGLVKPSETLSLTCAVSGHSISHDHAWSWVRQPPGEGLEWIGFISYSGITNYNPSLQGRVTISRDNSKNTLYLQMNSLRAEDTAVYYCARSLARTTAMDYWGEGTLVTVSSASTKGPSVFPLAPSSKSTSGGTAALGCLVKDYFPEPVTVSWNSGALTSGVHTFPAVLQSSGLYSLSSVVTVPSSSLGTQTYICNVNHKPSNTKVDKKVEPKSCDKTHTCPPCPAPEYLGGDSVFLFPPKPKDTLMISRTPEVTCVVVDVSHEDPEVKFNWYVDGVEVHNAKTKPREEQYNSTYRVVSVLTVLHQDWLNGKEYKCKVSNAALPKPIEKTISKAKGQPREPQVYTLPPSRDELTKNQVSLTCLVKGFYPSDIAVEWESNGQPENNYKTTPPVLDSDGSFFLYSKLTVDKSRWQQGNVFSCSVMHEALHNHYTQESLSLSP
light: not shown
notes: EU numbering; alterations on IL6R-B3; copies: 2 + 2
B2: IL6R-BP129/IL6R-L (antibody, human IgG1, kappa)
heavy: B1 heavy with E235D, Y236L, Y298D, A328K
light: not shown
notes: as for B1
B3: IL6R-BP176/IL6R-L (antibody, human IgG1, kappa)
heavy: B1 heavy with E235D, Y236L, A328D
light: not shown
notes: as for B1
B4: IL6R-BP209/IL6R-L (antibody, human IgG1, kappa)
heavy: B1 heavy with Y236L, G239D, H270D, P273G, K332R
light: not shown
notes: copies: 2 + 2
B5: IL6R-BP202/IL6R-L (antibody, human IgG1, kappa)
heavy: B1 heavy with Y236L, G239D, P273G, K332R
light: not shown
notes: copies: 2 + 2
B6: IL6R-BP201/IL6R-L (antibody, human IgG1, kappa)
heavy: B1 heavy with E235D, Y236L, G239D, P273G, A328K, K332R
light: not shown
notes: copies: 2 + 2
B7: IL6R-BP185/IL6R-L (antibody, human IgG1, kappa)
heavy: B1 heavy with E235D, G239D, P273G
light: not shown
notes: copies: 2 + 2
B8: IL6R-BP184/IL6R-L (antibody, human IgG1, kappa)
heavy: B1 heavy with E235D, Y236L, P273G, A328K
light: not shown
notes: copies: 2 + 2
B9: IL6R-BP208/IL6R-L (antibody, human IgG1, kappa)
heavy: B1 heavy with E235D, Y236L, G239D, H270D, P273G, A328K, K332R
light: not shown
notes: copies: 2 + 2
B10: IL6R-BP195/IL6R-L (antibody, human IgG1, kappa)
heavy: B1 heavy with E235D, G239D, H270D, P273G, Y298D
light: not shown
notes: copies: 2 + 2
B11: IL6R-BP206/IL6R-L (antibody, human IgG1, kappa)
heavy: B1 heavy with E235D, Y236L, P273G, A328K, K332R
light: not shown
notes: copies: 2 + 2
B12: IL6R-BP200/IL6R-L (antibody, human IgG1, kappa)
heavy: B1 heavy with E235D, G239D, P273G, A328D, K332R
light: not shown
notes: copies: 2 + 2
B13: IL6R-BP246/IL6R-L (antibody, human IgG1, kappa)
heavy: B1 heavy with E235D, Y236L, G239D, S269Q, H270D, P273G, Y298D, K332R
light: not shown
notes: copies: 2 + 2
B14: IL6R-BP249/IL6R-L (antibody, human IgG1, kappa)
heavy: B1 heavy with E235D, G239D, H270D, P273G, Y298D, A328K, K332R
light: not shown
notes: copies: 2 + 2
B15: IL6R-BP220/IL6R-L (antibody, human IgG1, kappa)
heavy: B1 heavy with E235D, Y236L, G239D, H270D, P273G, Y298D, A328K
light: not shown
notes: copies: 2 + 2
B16: IL6R-BP233/IL6R-L (antibody, human IgG1, kappa)
heavy: B1 heavy with G239D, P273G, A328K
light: not shown
notes: copies: 2 + 2
B17: IL6R-BP423/IL6R-L (antibody, human IgG1, kappa)
heavy: B1 heavy with E235D, Y236L, G239D, S269A, H270E, P273G, A328K, K332R
light: not shown
notes: alterations counted against IL6R-B3; copies: 2 + 2
B18: IL6R-BP451/IL6R-L (antibody, human IgG1, kappa)
heavy: B1 heavy with E235D, Y236L, G239D, S269A, H270E, P273G, A328K, K332R, P398G
light: not shown
notes: P396G introduced into IL6R-BP423; copies: 2 + 2
B19: IL6R-BP546/IL6R-L (antibody, human IgG1, kappa)
heavy: B1 heavy with E235D, Y236L, G239D, H270D, P273G, Y298D, A328K, K332R, L360M
light: not shown
notes: L358M introduced into IL6R-BP230; copies: 2 + 2
B20: IL6R-BP544/IL6R-L (antibody, human IgG1, kappa)
heavy: B1 heavy with E235D, Y236L, G239D, H270D, P273G, Y298D, A328K, K332R, R357Q
light: not shown
notes: R355Q introduced into IL6R-BP230; copies: 2 + 2
B21: IL6R-BP547/IL6R-L (antibody, human IgG1, kappa)
heavy: B1 heavy with E235D, Y236L, G239D, H270D, P273G, Y298D, A328K, K332R, K411R
light: not shown
notes: K409R introduced into IL6R-BP230; copies: 2 + 2
B22: IL6R-BP541/IL6R-L (antibody, human IgG1, kappa)
heavy: B1 heavy with E235D, Y236L, G239D, H270D, P273G, K276Q, Y298D, A328K, K332R
light: not shown
notes: K274Q introduced into IL6R-BP230; copies: 2 + 2
B23: IL6R-BP230/IL6R-L (antibody, human IgG1, kappa)
heavy: B1 heavy with E235D, Y236L, G239D, H270D, P273G, Y298D, A328K, K332R
light: not shown
notes: copies: 2 + 2
B24: IL6R-BP543/IL6R-L (antibody, human IgG1, kappa)
heavy: B1 heavy with E235D, Y236L, G239D, H270Q, P273G, Y298D, A328K, K332R
light: not shown
notes: H268Q introduced into IL6R-BP230 (takes the place of H268D); copies: 2 + 2
B25: IL6R-BP545/IL6R-L (antibody, human IgG1, kappa)
heavy: B1 heavy with E235D, Y236L, G239D, H270D, P273G, Y298D, A328K, K332R, D358E
light: not shown
notes: D356E introduced into IL6R-BP230; copies: 2 + 2
B26: IL6R-BP561/IL6R-L (antibody, human IgG1, kappa)
heavy: B1 heavy with E235D, Y236L, G239D, H270D, P273G, E274D, Y298D, A328K, K332R
light: not shown
notes: copies: 2 + 2

target: T1, human FcγRIIa type H extracellular …; assay: SPR (Biacore)

Kd	Binder
20000 nM	B1
40000 nM	B2
30000 nM	B3

target: T10, human FcγRIa extracellular domain with C-terminal His tag (human, UniProt P12314 16-292); assay: SPR (Biacore), antibody captured, FcγR analyte
T10 construct: not shown: His tag at the C terminus
T10 sequence (P12314 16-292): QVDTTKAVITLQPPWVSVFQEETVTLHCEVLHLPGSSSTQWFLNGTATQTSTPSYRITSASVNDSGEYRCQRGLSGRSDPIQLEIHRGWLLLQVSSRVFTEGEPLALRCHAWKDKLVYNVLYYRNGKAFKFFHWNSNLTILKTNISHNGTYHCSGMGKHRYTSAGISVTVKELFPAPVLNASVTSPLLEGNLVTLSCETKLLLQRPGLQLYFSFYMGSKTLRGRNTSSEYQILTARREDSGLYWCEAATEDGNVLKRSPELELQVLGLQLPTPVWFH

Kd	Binder
39 nM	B4
95 nM	B5

target: T2, human FcγRIIa type R (allotype R131) …; assay: SPR (Biacore), antibody captured, FcγR analyte

Kd	Binder
840 nM	B6
880 nM	B7
2300 nM	B8
850 nM	B9
910 nM	B10

target: T3, human FcγRIIa type H (allotype H131) …; assay: SPR (Biacore), antibody captured, FcγR analyte

Kd	Binder
10000 nM	B4
30000 nM	B8
8300 nM	B9
9200 nM	B5
10000 nM	B10

target: T4, human FcγRIIb extracellular domain with …; assay: SPR (Biacore), antibody captured, FcγR analyte

Kd	Binder
51 nM	B4
40 nM	B6
69 nM	B7
200 nM	B11
50 nM	B10
34 nM	B12

target: T11, human FcγRIIIa type V (allotype V158) extracellular domain with C-terminal His tag (human, UniProt P08637 17-208); assay: SPR (Biacore), antibody captured, FcγR analyte
T11 construct: extracellular domain; also called FcγRIIIaV; FcγRIIIa V type; not shown: His tag at the C terminus
T11 sequence (P08637 17-208 F176V): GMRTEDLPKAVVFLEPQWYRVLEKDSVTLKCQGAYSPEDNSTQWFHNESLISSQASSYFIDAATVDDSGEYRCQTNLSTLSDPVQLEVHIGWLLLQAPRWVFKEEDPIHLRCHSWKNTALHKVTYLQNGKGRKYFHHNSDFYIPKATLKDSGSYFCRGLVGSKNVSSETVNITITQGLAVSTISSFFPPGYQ

Kd	Binder
41000 nM	B4
36000 nM	B7
69000 nM	B11
66000 nM	B8
53000 nM	B9
31000 nM	B10

target: T10, human FcγRIa extracellular domain with …; assay: SPR (Biacore), antibody captured, FcγR analyte; remark: another data set of the same source

Kd	Binder
8 nM	B13
7 nM	B14
20 nM	B15
70 nM	B16

target: T5, human FcγRIIa type H (H131) …; assay: SPR (Biacore), antibody captured, FcγR analyte

Kd	Binder
2000 nM	B17
2000 nM	B18

target: T12, human FcγRIa extracellular domain with C-terminal His tag (human, UniProt P12314 16-292); assay: SPR (Biacore), antibody captured, FcγR analyte
T12 construct: not shown: His tag at the C terminus
T12 sequence (P12314 16-292): as the sequence (P12314 16-292) above

Kd	Binder
9 nM	B19
9.8 nM	B20
12 nM	B21
11 nM	B22
10 nM	B23
23 nM	B24

target: T6, human FcγRIIa type R (R131) …; assay: SPR (Biacore), antibody captured, FcγR analyte

Kd	Binder
500 nM	B19
570 nM	B25
480 nM	B20
450 nM	B22
560 nM	B24

target: T7, human FcγRIIb extracellular domain with …; assay: SPR (Biacore), antibody captured, FcγR analyte

Kd	Binder
15 nM	B19
17 nM	B25
17 nM	B20
19 nM	B21
16 nM	B22
18 nM	B23
20 nM	B24

target: T7, human FcγRIIb extracellular domain with …; assay: SPR (Biacore); KD for FcγRIIaR divided by KD for FcγRIIb

KD(IIaR)/KD(IIb)	Binder
32.8	B19
28.8	B20
27.8	B22
27.3	B24

target: T6, human FcγRIIa type R (R131) …; assay: SPR (Biacore); KD of IL6R-B3/IL6R-L divided by KD of this antibody

KD(IIaR) of parent polypeptide/KD(IIaR) of altered polypeptide	Binder
2.2	B19
2.2	B20
2.4	B22
1.9	B24

target: T7, human FcγRIIb extracellular domain with …; assay: as above

KD(IIb) of parent polypeptide/KD(IIb) of altered polypeptide	Binder
205	B19
184	B20
190	B22
152	B24

target: T8, human FcγRIIb extracellular domain; assay: SPR (Biacore), antibody captured on chip, FcγR extracellular domain as analyte, 25 C

Kd	Binder
18 nM	B26

target: T13, human FcγRIa extracellular domain (human, UniProt P12314 16-292); assay: as above
T13 construct: also called CD64; not shown: His tag at the C terminus
T13 sequence (P12314 16-292): as above

Kd	Binder
9.4 nM	B26

Target: T9, human FcγRIIa type R extracellular …
Assay: as above

Kd	Binder
510 nM	B26
